In patent US20260001928A1 (CORTERIA PHARMACEUTICALS, priority 2022, published 2026):
Each block holds one binder with its values, some of them ahead of it. *1 amine or outer side, *2 acyl side, *3 side chain or, on linkers, in order; H or OH if unused. Primed or numbered codes have the meaning given here. Where no end group is shown, it is not given here. Side-chain parts run from the residue outwards. [ ]: non-standard residue; d: D form. The star is where a group is joined. Thp′ = 4-amino-tetrahydro-2H-pyran-4-yl-acetic acid, O=C(CC1(N[*:1])CCOCC1)[*:2]; C20 diacid = O=C(O)CCCCCCCCCCCCCCCCCCC(=O)*; C18 diacid = O=C(O)CCCCCCCCCCCCCCCCC(=O)*; C16 diacid = O=C(O)CCCCCCCCCCCCCCC(=O)*; γGlu = O=C(O)[C@H](CCC(=O)[*:2])N[*:1]; Thp″ = not defined here; Pentanoyl = CCCCC(=O)*; AEEA = NCCOCCOCC(=O)O; Aib = CC(C)(N)C(=O)O

Key:
[1] = molecular target: human corticotropin-releasing factor 2a (CRF2a receptor) (human), Q13324; test: cell-based or functional assay
Chain of human corticotropin-releasing factor 2a (CRF2a receptor) (human), Q13324 (Q13324 20-411): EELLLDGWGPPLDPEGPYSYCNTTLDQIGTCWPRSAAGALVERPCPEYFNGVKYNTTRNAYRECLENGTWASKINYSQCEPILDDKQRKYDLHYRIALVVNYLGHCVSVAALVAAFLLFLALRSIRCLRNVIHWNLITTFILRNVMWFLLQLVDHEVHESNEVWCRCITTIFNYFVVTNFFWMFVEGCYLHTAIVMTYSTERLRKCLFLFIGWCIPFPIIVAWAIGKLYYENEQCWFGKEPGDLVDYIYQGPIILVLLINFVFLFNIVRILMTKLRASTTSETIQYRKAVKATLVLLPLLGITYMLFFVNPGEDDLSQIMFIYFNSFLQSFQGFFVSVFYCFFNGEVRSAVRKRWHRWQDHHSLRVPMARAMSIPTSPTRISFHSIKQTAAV

[2] = molecular target: T1, CRF1R receptor (UniProt P34998 24-415, limits assumed); test: cell-based or functional assay
T1 sequence (looked up): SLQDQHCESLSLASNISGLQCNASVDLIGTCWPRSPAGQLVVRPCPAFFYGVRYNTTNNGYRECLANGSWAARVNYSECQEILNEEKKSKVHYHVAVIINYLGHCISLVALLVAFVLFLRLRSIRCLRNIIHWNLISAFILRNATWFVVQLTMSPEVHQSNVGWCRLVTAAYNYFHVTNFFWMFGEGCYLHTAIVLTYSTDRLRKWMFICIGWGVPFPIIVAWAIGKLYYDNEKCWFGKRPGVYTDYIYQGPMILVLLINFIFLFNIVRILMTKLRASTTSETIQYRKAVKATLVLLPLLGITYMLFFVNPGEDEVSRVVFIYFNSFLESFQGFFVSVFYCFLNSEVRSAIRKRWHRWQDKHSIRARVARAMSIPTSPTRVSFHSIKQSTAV

Binder: Ac-IVLSLD[dV]PIKLK([γGlu-C18 diacid])KILLEQEKQKKQREQAETN[Thp″]QILAQV-NH2 (not fully specified; reading uncertain)
EC50 [nM] (cAMP) [1]: 0.16 nM

B1: SEQ ID NO 14 (peptide)
peptide: IVLSLD[dV]PIKLK([γGlu-C16 diacid])QILLKQERQKKQREQAEKNTQILEQV-NH2
modifications: N-terminus assumed
SMILES: CC[C@H](C)[C@H](N)C(=O)N[C@H](C(=O)N[C@@H](CC(C)C)C(=O)N[C@@H](CO)C(=O)N[C@@H](CC(C)C)C(=O)N[C@@H](CC(=O)O)C(=O)N[C@@H](C(=O)N1CCC[C@H]1C(=O)N[C@H](C(=O)N[C@@H](CCCCN)C(=O)N[C@@H](CC(C)C)C(=O)N[C@@H](CCCCNC(=O)CC[C@H](NC(=O)CCCCCCCCCCCCCCC(=O)O)C(=O)O)C(=O)N[C@@H](CCC(N)=O)C(=O)N[C@H](C(=O)N[C@@H](CC(C)C)C(=O)N[C@@H](CC(C)C)C(=O)N[C@@H](CCCCN)C(=O)N[C@@H](CCC(N)=O)C(=O)N[C@@H](CCC(=O)O)C(=O)N[C@@H](CCCNC(=N)N)C(=O)N[C@@H](CCC(N)=O)C(=O)N[C@@H](CCCCN)C(=O)N[C@@H](CCCCN)C(=O)N[C@@H](CCC(N)=O)C(=O)N[C@@H](CCCNC(=N)N)C(=O)N[C@@H](CCC(=O)O)C(=O)N[C@@H](CCC(N)=O)C(=O)N[C@@H](C)C(=O)N[C@@H](CCC(=O)O)C(=O)N[C@@H](CCCCN)C(=O)N[C@@H](CC(N)=O)C(=O)N[C@H](C(=O)N[C@@H](CCC(N)=O)C(=O)N[C@H](C(=O)N[C@@H](CC(C)C)C(=O)N[C@@H](CCC(=O)O)C(=O)N[C@@H](CCC(N)=O)C(=O)N[C@H](C(N)=O)C(C)C)[C@@H](C)CC)[C@@H](C)O)[C@@H](C)CC)[C@@H](C)CC)C(C)C)C(C)C
EC50 [2]: > 250000 pM
Emax (% I) [2]: 24%

B2: SEQ ID NO 34 (peptide)
peptide: VLSLD[dV]PIKLK([γGlu-C16 diacid])KILLEQEKQKKQREQAETNKQILAQV-NH2
modifications: N-terminus assumed
SMILES: CC[C@H](C)[C@H](NC(=O)[C@H](CCC(N)=O)NC(=O)[C@H](CCCCN)NC(=O)[C@H](CC(N)=O)NC(=O)[C@@H](NC(=O)[C@H](CCC(=O)O)NC(=O)[C@H](C)NC(=O)[C@H](CCC(N)=O)NC(=O)[C@H](CCC(=O)O)NC(=O)[C@H](CCCNC(=N)N)NC(=O)[C@H](CCC(N)=O)NC(=O)[C@H](CCCCN)NC(=O)[C@H](CCCCN)NC(=O)[C@H](CCC(N)=O)NC(=O)[C@H](CCCCN)NC(=O)[C@H](CCC(=O)O)NC(=O)[C@H](CCC(N)=O)NC(=O)[C@H](CCC(=O)O)NC(=O)[C@H](CC(C)C)NC(=O)[C@H](CC(C)C)NC(=O)[C@@H](NC(=O)[C@H](CCCCN)NC(=O)[C@H](CCCCNC(=O)CC[C@H](NC(=O)CCCCCCCCCCCCCCC(=O)O)C(=O)O)NC(=O)[C@H](CC(C)C)NC(=O)[C@H](CCCCN)NC(=O)[C@@H](NC(=O)[C@@H]1CCCN1C(=O)[C@H](NC(=O)[C@H](CC(=O)O)NC(=O)[C@H](CC(C)C)NC(=O)[C@H](CO)NC(=O)[C@H](CC(C)C)NC(=O)[C@@H](N)C(C)C)C(C)C)[C@@H](C)CC)[C@@H](C)CC)[C@@H](C)O)C(=O)N[C@@H](CC(C)C)C(=O)N[C@@H](C)C(=O)N[C@@H](CCC(N)=O)C(=O)N[C@H](C(N)=O)C(C)C
Emax (% I) [2]: 0%

B5: SEQ ID NO 13 (peptide)
peptide: H-IVLSLD[dV]PIKLK([γGlu-C16 diacid])QILLKQERQKKQREQAEKNVQILEQV-NH2
SMILES: CC[C@H](C)[C@H](N)C(=O)N[C@H](C(=O)N[C@@H](CC(C)C)C(=O)N[C@@H](CO)C(=O)N[C@@H](CC(C)C)C(=O)N[C@@H](CC(=O)O)C(=O)N[C@@H](C(=O)N1CCC[C@H]1C(=O)N[C@H](C(=O)N[C@@H](CCCCN)C(=O)N[C@@H](CC(C)C)C(=O)N[C@@H](CCCCNC(=O)CC[C@H](NC(=O)CCCCCCCCCCCCCCC(=O)O)C(=O)O)C(=O)N[C@@H](CCC(N)=O)C(=O)N[C@H](C(=O)N[C@@H](CC(C)C)C(=O)N[C@@H](CC(C)C)C(=O)N[C@@H](CCCCN)C(=O)N[C@@H](CCC(N)=O)C(=O)N[C@@H](CCC(=O)O)C(=O)N[C@@H](CCCNC(=N)N)C(=O)N[C@@H](CCC(N)=O)C(=O)N[C@@H](CCCCN)C(=O)N[C@@H](CCCCN)C(=O)N[C@@H](CCC(N)=O)C(=O)N[C@@H](CCCNC(=N)N)C(=O)N[C@@H](CCC(=O)O)C(=O)N[C@@H](CCC(N)=O)C(=O)N[C@@H](C)C(=O)N[C@@H](CCC(=O)O)C(=O)N[C@@H](CCCCN)C(=O)N[C@@H](CC(N)=O)C(=O)N[C@H](C(=O)N[C@@H](CCC(N)=O)C(=O)N[C@H](C(=O)N[C@@H](CC(C)C)C(=O)N[C@@H](CCC(=O)O)C(=O)N[C@@H](CCC(N)=O)C(=O)N[C@H](C(N)=O)C(C)C)[C@@H](C)CC)C(C)C)[C@@H](C)CC)[C@@H](C)CC)C(C)C)C(C)C
EC50 [nM] (cAMP) [1]: 0.15 nM

B6: SEQ ID NO 150 (peptide)
peptide: H-IVLSLD[dV]PIKLK([AEEA-AEEA-γGlu-C18 diacid])QILLKQERQKKQREQAEKNKQILEQV-NH2
SMILES: CC[C@H](C)[C@H](N)C(=O)N[C@H](C(=O)N[C@@H](CC(C)C)C(=O)N[C@@H](CO)C(=O)N[C@@H](CC(C)C)C(=O)N[C@@H](CC(=O)O)C(=O)N[C@@H](C(=O)N1CCC[C@H]1C(=O)N[C@H](C(=O)N[C@@H](CCCCN)C(=O)N[C@@H](CC(C)C)C(=O)N[C@@H](CCCCNC(=O)COCCOCCNC(=O)COCCOCCNC(=O)CC[C@H](NC(=O)CCCCCCCCCCCCCCCCC(=O)O)C(=O)O)C(=O)N[C@@H](CCC(N)=O)C(=O)N[C@H](C(=O)N[C@@H](CC(C)C)C(=O)N[C@@H](CC(C)C)C(=O)N[C@@H](CCCCN)C(=O)N[C@@H](CCC(N)=O)C(=O)N[C@@H](CCC(=O)O)C(=O)N[C@@H](CCCNC(=N)N)C(=O)N[C@@H](CCC(N)=O)C(=O)N[C@@H](CCCCN)C(=O)N[C@@H](CCCCN)C(=O)N[C@@H](CCC(N)=O)C(=O)N[C@@H](CCCNC(=N)N)C(=O)N[C@@H](CCC(=O)O)C(=O)N[C@@H](CCC(N)=O)C(=O)N[C@@H](C)C(=O)N[C@@H](CCC(=O)O)C(=O)N[C@@H](CCCCN)C(=O)N[C@@H](CC(N)=O)C(=O)N[C@@H](CCCCN)C(=O)N[C@@H](CCC(N)=O)C(=O)N[C@H](C(=O)N[C@@H](CC(C)C)C(=O)N[C@@H](CCC(=O)O)C(=O)N[C@@H](CCC(N)=O)C(=O)N[C@H](C(N)=O)C(C)C)[C@@H](C)CC)[C@@H](C)CC)[C@@H](C)CC)C(C)C)C(C)C
EC50 [nM] (cAMP) [1]: 0.25 nM

Further lines, results first:

Emax (% I) [2]: 11%
B3: SEQ ID NO 199 (peptide)
peptide: Ac-IVLSLD[dV]PIKLK([γGlu-C18 diacid])KILLEQEKQKKQREQAETN[Thp′]QILAQV-NH2
SMILES: CC[C@H](C)[C@H](NC(C)=O)C(=O)N[C@H](C(=O)N[C@@H](CC(C)C)C(=O)N[C@@H](CO)C(=O)N[C@@H](CC(C)C)C(=O)N[C@@H](CC(=O)O)C(=O)N[C@@H](C(=O)N1CCC[C@H]1C(=O)N[C@H](C(=O)N[C@@H](CCCCN)C(=O)N[C@@H](CC(C)C)C(=O)N[C@@H](CCCCNC(=O)CC[C@H](NC(=O)CCCCCCCCCCCCCCCCC(=O)O)C(=O)O)C(=O)N[C@@H](CCCCN)C(=O)N[C@H](C(=O)N[C@@H](CC(C)C)C(=O)N[C@@H](CC(C)C)C(=O)N[C@@H](CCC(=O)O)C(=O)N[C@@H](CCC(N)=O)C(=O)N[C@@H](CCC(=O)O)C(=O)N[C@@H](CCCCN)C(=O)N[C@@H](CCC(N)=O)C(=O)N[C@@H](CCCCN)C(=O)N[C@@H](CCCCN)C(=O)N[C@@H](CCC(N)=O)C(=O)N[C@@H](CCCNC(=N)N)C(=O)N[C@@H](CCC(=O)O)C(=O)N[C@@H](CCC(N)=O)C(=O)N[C@@H](C)C(=O)N[C@@H](CCC(=O)O)C(=O)N[C@H](C(=O)N[C@@H](CC(N)=O)C(=O)NC1(CC(=O)N[C@@H](CCC(N)=O)C(=O)N[C@H](C(=O)N[C@@H](CC(C)C)C(=O)N[C@@H](C)C(=O)N[C@@H](CCC(N)=O)C(=O)N[C@H](C(N)=O)C(C)C)[C@@H](C)CC)CCOCC1)[C@@H](C)O)[C@@H](C)CC)[C@@H](C)CC)C(C)C)C(C)C

EC50 [nM] (cAMP) [1]: 0.19 nM
B4: SEQ ID NO 228 (peptide)
peptide: Pentanoyl-VLSLD[dV]PIGLK([γGlu-C20 diacid])KILLEQEKQKKQREQAETN[Aib]QILAQV-NH2
SMILES: CCCCC(=O)N[C@H](C(=O)N[C@@H](CC(C)C)C(=O)N[C@@H](CO)C(=O)N[C@@H](CC(C)C)C(=O)N[C@@H](CC(=O)O)C(=O)N[C@@H](C(=O)N1CCC[C@H]1C(=O)N[C@H](C(=O)NCC(=O)N[C@@H](CC(C)C)C(=O)N[C@@H](CCCCNC(=O)CC[C@H](NC(=O)CCCCCCCCCCCCCCCCCCC(=O)O)C(=O)O)C(=O)N[C@@H](CCCCN)C(=O)N[C@H](C(=O)N[C@@H](CC(C)C)C(=O)N[C@@H](CC(C)C)C(=O)N[C@@H](CCC(=O)O)C(=O)N[C@@H](CCC(N)=O)C(=O)N[C@@H](CCC(=O)O)C(=O)N[C@@H](CCCCN)C(=O)N[C@@H](CCC(N)=O)C(=O)N[C@@H](CCCCN)C(=O)N[C@@H](CCCCN)C(=O)N[C@@H](CCC(N)=O)C(=O)N[C@@H](CCCNC(=N)N)C(=O)N[C@@H](CCC(=O)O)C(=O)N[C@@H](CCC(N)=O)C(=O)N[C@@H](C)C(=O)N[C@@H](CCC(=O)O)C(=O)N[C@H](C(=O)N[C@@H](CC(N)=O)C(=O)NC(C)(C)C(=O)N[C@@H](CCC(N)=O)C(=O)N[C@H](C(=O)N[C@@H](CC(C)C)C(=O)N[C@@H](C)C(=O)N[C@@H](CCC(N)=O)C(=O)N[C@H](C(N)=O)C(C)C)[C@@H](C)CC)[C@@H](C)O)[C@@H](C)CC)[C@@H](C)CC)C(C)C)C(C)C
